Results from PMC10629668.

Target: serpin-6, endogenous in silkworm hemolymph (Bombyx mori (endogenous in larval hemolymph))
Assay: co-IP; antibodies against serpin-1 or serpin-6; hemolymph of naive larvae or of larvae 24 h after injection of LPS, PGN or CDN; immunoblot with antibodies against serpin-1a, serpin-6 and CLIP2

## CLIP2, endogenous in silkworm hemolymph (enzyme)
  intensity of the complex against the CLIP2-serpin-1a complex (after PAMPs stimulation, control hemolymph subtracted): 2 fold
